Experimental data as given in paper PMC8423076.

Target: SARS-CoV-2 receptor-binding domain (RBD) homodimer (SARS-CoV-2) (UniProt P0DTC2)
Assay: reducing and non-reducing SDS-PAGE

SARS-CoV-2 receptor-binding domain (RBD) homodimer (from UniProt P0DTC2 319-541) (domain or fragment)
stoichiometry N: 2
